Data on 3 molecules can be found in PMC3162602, “Laforin, a Dual Specificity Phosphatase Involved in Lafora Disease, Is Present Mainly as Monomeric Form with Full Phosphatase Activity” (PLoS ONE, 2011).

In data set [1] the target is Cm-laforin-HIS6 (Cyanidioschyzon merolae). In words: SEC; SEX4-HIS6 on Superdex-75 and Cm-laforin-HIS6 on Superdex-200 after Ni-NTA; multiple peaks.
Another data set addresses Hs-laforin-HIS6 (human) (UniProt O95278). Put plainly: SEC; Ni-NTA-purified Hs-laforin-HIS6 on HiLoad 16/60 Superdex 75; two peaks, A (dimer) and B (monomer).
Data set [2] concerns the molecule itself. Put plainly: SEC; SEX4-HIS6 on Superdex-75 and Cm-laforin-HIS6 on Superdex-200 after Ni-NTA; multiple peaks.

On to Cm-laforin-HIS6 (enzyme), for which the stoichiometry N in data set [1] stood at 2.

For the molecule “Hs-laforin-HIS6 (from UniProt O95278 1-331) (enzyme)”, in the data set with Hs-laforin-HIS6 (human), the stoichiometry N worked out at 2.

B1: At-SEX4-HIS6(Δ81) (enzyme, Arabidopsis thaliana, UniProt Q9FEB5 82-379, looked up)
chain: QAMGAVLTYRHELGMNYNFIRPDLIVGSCLQTPEDVDKLRKIGVKTIFCLQQDPDLEYFGVDISSIQAYAKKYSDIQHIRCEIRDFDAFDLRMRLPAVVGTLYKAVKRNGGVTYVHCTAGMGRAPAVALTYMFWVQGYKLMEAHKLLMSKRSCFPKLDAIRNATIDILTGLKRKTVTLTLKDKGFSRVEISGLDIGWGQRIPLTLDKGTGFWILKRELPEGQFEYKYIIDGEWTHNEAEPFIGPNKDGHTNNYAKVVDDPTSVDGTTRERLSSEDPELLEEERSKLIQFLETCSEAEV
notes: SEX4 (Starch EXcess4), Arabidopsis thaliana glucan phosphatase; construct pET21a At-SEX4-HIS6(Δ81), printed as a 32 kDa protein; Δ81 read as lacking the first 81 residues; also called Starch EXcess4; source: bacteria (E. coli), purified (Ni-NTA, Superdex-75)
Consider B1, for which the “stoichiometry N” value in data set [2] came out at 2.
